B1: ALDH8A1 (parent)
chain: WSSRSPQERSRVLNQVADLLEQSL

Variants of: B1
Test: protein stability index of a GFP-peptide fusion (GPS, HEK-293T) (PSI 1-6); higher = more stable
Conditions: c terminus: a fixed tail appended
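Further: lentivirally expressed fusions sorted by FACS into six bins by GFP to DsRed ratio, PSI derived from sequencing read proportions per bin multiplied by bin number.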

Point of comparison: WSSRSPQERSRVLNQVADLLEHSL, protein stability index 3.34. Against it:
- WSSISPQERSRVLNQVADLLEQSL — lower, 2.64
- WSSHSPQERSRVLNQVADLLEQSL — lower, 2.71
- WSSPSPQERSRVLNQVADLLEQSL — lower, 2.64
- WSSDSPQERSRVLNQVADLLEQSL — lower, 2.79
- WSSASPQERSRVLNQVADLLEQSL — lower, 2.18
- WSSQSPQERSRVLNQVADLLEQSL — lower, 3.04
- WSSSSPQERSRVLNQVADLLEQSL — lower, 2.44
- WSSVSPQERSRVLNQVADLLEQSL — lower, 2.02
- WSSRSPQERSRVLNQVADLLEQST — the same, 3.34
- WSSRSPQERSRVLNQVADLLEQSR — higher, 3.49
- WSSRSPQERSRVLNQVADLLEQSK — higher, 3.94
- WSSRSPQERSRVLNQVADLLEQSC — lower, 2.9
- WSSRSPQERSRVLNQVADLLEQSD — higher, 4.17
- WSSRSPQERSRVLNQVADLLEQSY — lower, 1.86
- WSSRSPQERSRVLNQVADLLEQSI — lower, 1.76
- WSSRSPQERSRVLNQVADLLEQSE — higher, 3.59
- WSSRSPQERSRVLNQVADLLEQSN — lower, 2.96
- WSSRSPQERSRVLNQVEDLLEQSL — higher, 3.88
- WSSRSPQERSRVLNQVQDLLEQSL — lower, 2.5
- WSSRSPQERSRVLNQVGDLLEQSL — higher, 3.47
- WSSRSPQERSRVLNQVSDLLEQSL — lower, 3.02
- WSSRSPQERSRVLNQVRDLLEQSL — lower, 1.9
- WSSRSPQERSRVLNQVFDLLEQSL — lower, 2.58
- WSSRSPQERSRVLDQVADLLEQSL — lower, 2.28
- WSSRSPQERSRVLFQVADLLEQSL — lower, 1.26
- WSSRSPQERSRVLKQVADLLEQSL — lower, 1.97
- WSSRSPQERSRVLMQVADLLEQSL — lower, 1.79
- WSSRSPQERSRVLSQVADLLEQSL — lower, 2.58
- WSSRSPQERSRVLGQVADLLEQSL — lower, 2.38
- WSSRSPQERSRVLAQVADLLEQSL — lower, 2.56
- WSSRSPQERSRVLLQVADLLEQSL — lower, 1.62
- WSSRSPQERSRVLVQVADLLEQSL — lower, 2.1
- WSSRSPQERSRVLCQVADLLEQSL — lower, 2.21
- WSSRSPQERSRVLHQVADLLEQSL — lower, 2.17
- WSSRSPQERSRVLNQVADLLENSL — lower, 2.61
- WSSRSPQERSRVLNQVADLLEESL — lower, 2.88
- WSSRSPQERSRVLNQVADLLEDSL — higher, 3.63
- WSSRSPQERSRVLNQVADLLEKSL — lower, 2.27
- WSSRSPQERSRVLNQVADLLEPSL — lower, 3.31
- WSSRSPQERSRVLNQVADLLEYSL — lower, 2.33
- WSSRSPQERSRVLNQVADLLEVSL — lower, 1.91
- WSSRSPQERSRVLNQVADLLEISL — lower, 2.01
- WSSRSPQERSRVLNQSADLLEQSL — higher, 3.99
- WSSRSPQERSRVLNQNADLLEQSL — higher, 4.2
- WSSRSPQERSRVLNQGADLLEQSL — higher, 4.12
- WSSRSPQERSRVLNQMADLLEQSL — lower, 2.7
- WSSRSPQERSRVLNQYADLLEQSL — lower, 2.29
- WSSRSPQERSRVLNQLADLLEQSL — lower, 2.24
- WSSRSPQERSRVLNQQADLLEQSL — higher, 4.62
- WSSRSPQERSRVLNQDADLLEQSL — higher, 4.34
- WSSRSPQERSRVLNQFADLLEQSL — lower, 1.92
- WSSRSPQERSRVLNQKADLLEQSL — higher, 3.71
- WSSRSPTERSRVLNQVADLLEQSL — lower, 2.15
- WSSRSPWERSRVLNQVADLLEQSL — lower, 2.37
- WSSRSPDERSRVLNQVADLLEQSL — lower, 2.96
- WSSRSPLERSRVLNQVADLLEQSL — lower, 1.91
- WSSRSPEERSRVLNQVADLLEQSL — lower, 2.76
- WSSRSPVERSRVLNQVADLLEQSL — lower, 2.53
- WSSRSPFERSRVLNQVADLLEQSL — lower, 1.77
- WSSRSPNERSRVLNQVADLLEQSL — lower, 2.81
- WSSRSPGERSRVLNQVADLLEQSL — lower, 2.7
- WSSRSPKERSRVLNQVADLLEQSL — lower, 2.61
- WSSRSPQERSRVLNQVADLLKQSL — lower, 1.61
- WSSRSPQERSRVLNQVADLLRQSL — lower, 2.26
- WSSRSPQERSRVLNQVADLLDQSL — lower, 2.58
- WSSRSPQERSRVLNQVADLLTQSL — lower, 2.33
- WSSRSPQERSRVLNQVADLLNQSL — lower, 2.52
- WSSRSVQERSRVLNQVADLLEQSL — lower, 2.39
- WSSRSLQERSRVLNQVADLLEQSL — lower, 2.17
- WSSRSSQERSRVLNQVADLLEQSL — lower, 2.8
- WSSRSWQERSRVLNQVADLLEQSL — lower, 2.9
- WSSRSHQERSRVLNQVADLLEQSL — lower, 2.73
- WSSRSMQERSRVLNQVADLLEQSL — lower, 1.99
- WSSRSIQERSRVLNQVADLLEQSL — lower, 2.44
- WSSRSDQERSRVLNQVADLLEQSL — lower, 3.19
- HSSRSPQERSRVLNQVADLLEQSL — higher, 3.56
- ISSRSPQERSRVLNQVADLLEQSL — lower, 2.69
- MSSRSPQERSRVLNQVADLLEQSL — lower, 3.06
- FSSRSPQERSRVLNQVADLLEQSL — lower, 2.67
- VSSRSPQERSRVLNQVADLLEQSL — lower, 3.11
- DSSRSPQERSRVLNQVADLLEQSL — higher, 3.69
- GSSRSPQERSRVLNQVADLLEQSL — higher, 3.44
- CSSRSPQERSRVLNQVADLLEQSL — lower, 2.78
- WSSRSPQERSRLLNQVADLLEQSL — lower, 2.06
- WSSRSPQERSRYLNQVADLLEQSL — lower, 2.74
- WSSRSPQERSRNLNQVADLLEQSL — higher, 3.99
- WSSRSPQERSRPLNQVADLLEQSL — higher, 4.23
- WSSRSPQERSRILNQVADLLEQSL — lower, 1.98
- WSSRSPQERSRKLNQVADLLEQSL — lower, 3.07
- WSSRSPQERSRWLNQVADLLEQSL — lower, 1.73
- WSSRSPQERSRQLNQVADLLEQSL — higher, 3.45
- WSSRSPQERSRFLNQVADLLEQSL — lower, 2.12
- WSSRSPQERSRALNQVADLLEQSL — lower, 3.11
